# Laboratory results as given in patent publication EP4616869A1, “FAP TARGETED ANTIBODY-DRUG CONJUGATES” (Oncomatryx Biopharma, S.L., priority 2024, dated 2025).
# Where two headings read alike, the source gives them in different places. Non-standard residues stand in square brackets, D forms with d. Residues, ends and D or L forms follow the SMILES beside them. *: point of attachment. Dolaproine = CO[C@@H]([C@@H]1CCCN1)[C@@H](C)C(=O)O; Dil = CC[C@H](C)[C@H](NC)[C@@H](CC(=O)O)OC; X1 = C[C@@H](N*)[C@@H](O)c1ccccc1; NMeV = CN[C@H](C(=O)O)C(C)C
# T1: Fibroblast activation protein (FAP) on FAP-expressing HT1080-FAP cells (UniProt Q12884 1-760, limits assumed)
# T1 construct: whole, on cells; also called FAPα
# T1 sequence (looked up): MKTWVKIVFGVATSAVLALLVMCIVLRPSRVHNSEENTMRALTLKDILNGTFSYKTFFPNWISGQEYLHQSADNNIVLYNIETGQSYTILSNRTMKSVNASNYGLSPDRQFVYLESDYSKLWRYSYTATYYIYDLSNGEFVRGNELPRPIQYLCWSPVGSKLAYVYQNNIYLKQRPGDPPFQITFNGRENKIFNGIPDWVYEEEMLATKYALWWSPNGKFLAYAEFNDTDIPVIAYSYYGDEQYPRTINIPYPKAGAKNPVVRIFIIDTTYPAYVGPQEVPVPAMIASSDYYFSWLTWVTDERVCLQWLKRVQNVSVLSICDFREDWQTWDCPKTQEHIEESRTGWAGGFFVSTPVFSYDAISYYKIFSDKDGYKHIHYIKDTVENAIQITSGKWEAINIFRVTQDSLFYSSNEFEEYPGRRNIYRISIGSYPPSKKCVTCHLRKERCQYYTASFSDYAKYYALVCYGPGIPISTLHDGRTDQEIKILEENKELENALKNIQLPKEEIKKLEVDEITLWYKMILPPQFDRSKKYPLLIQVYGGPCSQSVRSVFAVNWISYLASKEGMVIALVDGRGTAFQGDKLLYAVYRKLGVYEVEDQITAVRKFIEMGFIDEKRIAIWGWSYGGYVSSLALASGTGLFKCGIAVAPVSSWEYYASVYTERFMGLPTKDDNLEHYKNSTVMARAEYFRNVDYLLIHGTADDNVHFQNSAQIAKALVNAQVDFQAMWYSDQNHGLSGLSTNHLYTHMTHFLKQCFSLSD
# B1: OMTX105: anti-FAP IgG antibody conjugated with the drug-linker vcMMAE, through thiol-based reaction on the cysteine residues of the antibody (conjugate)
# heavy: QVQLVQSGAEVKKPGASVKVSCKASGYTFTENIIHWVRQAPGQGLEWMGWFHPGSGSIKYNEKFKDRVTMTADTSTSTVYMELSSLRSEDTAVYYCARHGGTGRGAMDYWGQGTLVTVSSASTKGPSVFPLAPSSKSTSGGTAALGCLVKDYFPEPVTVSWNSGALTSGVHTFPAVLQSSGLYSLSSVVTVPSSSLGTQTYICNVNHKPSNTKVDKKVEPKSCDKTHTCPPCPAPPVAGPSVFLFPPKPKDTLMISRTPEVTCVVVDVSHEDPEVKFNWYVDGVEVHNAKTKPREEQYNSTYRVVSVLTVLHQDWLNGKEYKCKVSNKGLPSSIEKTISKAKGQPREPQVYTLPPSRDELTKNQVSLTCLVKGFYPSDIAVEWESNGQPENNYKTTPPVLDSDGSFFLYSKLTVDKSRWQQGNVFSCSVMHEALHNHYTQKSLSLSPGK
# light: DIQMTQSPSSLSASVGDRVTITCRASKSVSTSAYSYMHWYQQKPGKAPKLLIYLASNLESGVPSRFSGSGSGTDFTLTISSLQPEDFATYYCQHSRELPYTFGQGTKLEIKRTVAAPSVFIFPPSDEQLKSGTASVVCLLNNFYPREAKVQWKVDNALQSGNSQESVTEQDSKDSTYSLSSTLTLSKADYEKHKVYACEVTHQGLSSPVTKSFNRGEC
# B2: OMTX105 antibody-drug conjugate (anti-FAP IgG antibody conjugated with the drug-linker vcMMAE) (antibody, V domains shown)
# VH: QVQLVQSGAEVKKPGASVKVSCKASGYTFTENIIHWVRQAPGQGLEWMGWFHPGSGSIKYNEKFKDRVTMTADTSTSTVYMELSSLRSEDTAVYYCARHGGTGRGAMDYWGQGTLVTVSS
# VL: DIQMTQSPSSLSASVGDRVTITCRASKSVSTSAYSYMHWYQQKPGKAPKLLIYLASNLESGVPSRFSGSGSGTDFTLTISSLQPEDFATYYCQHSRELPYTFGQGTKLEIKR
# modifications: drug-linker vcMMAE on cysteine residues of the antibody (non-site specific, thiol-based); DAR 3.92; the cysteines are not stated
# notes: also called OMTX105 ADC; anti-FAP MMAE ADC
# Legend:
# [1] = tested on: HCT15 (high Pgp expression); assay: Cell viability assay (crystal violet staining), payloads, HCT15; type: cell-based; details: HCT15, 48 hours incubation, read-out: IC 50 HCT15
# Description: (§1) The cytotoxic activity of A1B1 cytolysin and MMAE payloads was analyzed via cell-viability assay using the colorectal cancer cell lines HCT15 (high Pgp expression) and HCT116 (low Pgp expression). The day before the assay, cells were seeded and cultivated overnight at 37 °C. Titration of the payloads diluted in medium was added to the cells and incubated for 48 hours at 37 °C. Finally, cell viability was analyzed by crystal violet staining.
# [2] = tested on: HCT116 (low Pgp expression); assay: Cell viability assay (crystal violet staining), payloads, HCT116; type: cell-based; details: HCT116, 48 hours incubation
# Description: as §1
# [3] = target: Fibroblast activation protein (FAP) on FAP-expressing HT1080-FAP cells (UniProt Q12884); assay: flow cytometry on HT1080-FAP cells, PE-labeled anti-human Fc secondary antibody, MFI
# [4] = target: Fibroblast activation protein (FAP) on FAP-expressing HT1080-FAP cells (UniProt Q12884); assay: cell-based or functional assay
# [5] = tested on: HT1080-FAP transfected cells; assay: In vivo efficacy and tolerability in the HT1080-FAP tumor model with huPBMCs; set-up: species or system female NOD scid gamma (NSG) mice
# Description: To evaluate the in vivo efficacy of OMTX1 05 and OMTX705, both ADCs were tested in female NOD scid gamma (NSG) mice co-inoculated with HT1080-FAP transfected cells and huPBMCs.
# After 7 days, mice were randomized according to tumor size in the different treatment groups. Treatments with OMTX105 and OMTX705 as single agents were initiated, both with a weekly intravenous dose of 20 mg/kg over 3 weeks.
# Tumor volume and animal weight were measured 3 times a week to monitor the evolution of tumor growth and weight change upon treatment.
# [6] = tested on: Panc007 pancreatic ductal adenocarcinoma patient derived xenograft; assay: In vivo efficacy and tolerability in the Panc007 patient-derived xenograft model; set-up: species or system female Athymic nude-Foxn1 (nude/nude) mice; details: for TGI value: day 28
# Description: The antitumor activity of OMTX105 vs OMTX705 was evaluated in the Panc007 pancreatic ductal adenocarcinoma patient derived xenograft mode in female Athymic nude-Foxn1 (nude/nude) mice.
# Both OMTX105 and OMTX705 were administered intravenously at 5 and 20 mg/kg once a week for 4 weeks.
# HT1080-FAP cells = assay: ADC cytotoxic activity, cell viability assay, HT1080-FAP; type: cell-based
# Description: (§2) OMTX105 cytotoxic activity was analyzed via cell viability assay using HT1080-FAP and HT1080-WT cells. […] Here, a concentration of half-maximal killing of 64 pM for OMTX105 was determined compared to 750 pM for OMTX705. […] Specificity ratio between both cell lines was 1,205 for OMTX105 while for OMTX705 the value was 82 (Figure 3). Table 4: Comparative in vitro binding and cytotoxic activity values of OMTX105 and OMTX705 ADCs
# HT1080-WT cells = assay: ADC cytotoxic activity, cell viability assay, HT1080-WT; type: cell-based; details: read-out: Concentration of half maximal killing HT1080 WT
# Description: as §2
# [7] = target: T1, Fibroblast activation protein (FAP) on …; assay: flow cytometry on HT1080-FAP cells, PE-labeled anti-human Fc secondary antibody, MFI
# [8] = target: T1, Fibroblast activation protein (FAP) on …; assay: cell-based or functional assay
# [9] = weekly intravenous dose of 20 mg/kg over 3 weeks
# [10] = 5 and 20 mg/kg intravenously once a week for 4 weeks
molecule,measurement,setting,value
"CC[C@H](C)[C@@H]([C@@H](CC(=O)N1CCC[C@H]1[C@H](OC)[C@@H](C)C(=O)N[C@H](C)[C@@H](O)c1ccccc1)OC)N(C)C(=O)[C@@H](NC(=O)[C@@H](NC)C(C)C)C(C)C [MMAE, Monomethyl auristatin E] (H-[NMeV]V[Dil][Dolaproine]-X1)",IC50,[1],39.5 ± 10.1 nM
same,IC50,"[1]; Homo sapiens, HCT-15, 48 h",40 nM
same,IC50,[2],2.5 ± 0.4 nM
same,IC50,"[2]; Homo sapiens, HCT-116, 48 h",3 nM
OMTX705 antibody-drug conjugate (anti-FAP monoclonal antibody conjugated to a cytolysin payload),EC50,[3],0.204 nM
same,"Concentration of half maximal killing, HT1080FAP (cell viability assay)",[4],750 pM
same,Specificity ratio between HT1080WT and HT1080FAP (cell viability assay),[4],82
B1,tolerability,"[5]; 20 mg/kg, 21-day test period",well tolerated
same,complete response,[5]; [9],complete response in this model at day 7
same,percentage tumor growth inhibition (TGI),[5]; [9],104.98%
same,"weight loss, toxic effect","[5]; weekly intravenous dose of 20 mg/kg, 21-day test period","No weight loss, nor toxic effect"
same,TGI value,[6]; 5 mg/kg intravenously once a week for 4 weeks,85%
same,TGI value,[6]; 20 mg/kg intravenously once a week for 4 weeks,136%
same,adverse effects or animal death,[6]; [10],no adverse effects or animal death
same,tolerability (body weight data and clinical observations),[6]; [10],well tolerated
same,weight loss,"[6]; both 5 mg/kg and 20 mg/kg, after 56 days",no weight loss observed
same,EC50,"HT1080-FAP cells; HT1080-FAP cells, read-out: Concentration of half maximal killing HT1080FAP",0.064 ± 0.033 nM
same,Specificity ratio between HT1080WT and HT1080FAP,"HT1080-FAP cells; ratio of half maximal killing concentrations, HT1080-WT to HT1080-FAP","1,205"
same,EC50,HT1080-WT cells,77.2 nM
B2,EC50,[7],0.255 nM
same,Specificity ratio between HT1080WT and HT1080FAP (cell viability assay),[8],1200
